In patent US9096835B2, “DNA polymerase” (Medical Research Council, priority 2003, dated 2015):
“Also recorded” adds a separate entry of the source.

Tests used:
Type in all cases: biochemical
[1] = tested on: template containing a cis-syn cyclobutane thymine-thymine dimer (CPD); assay: Translesion replication assay (primer extension), CPD; conditions: gel-extension assay, 60° C.
Protocol: Template primers 22 (undamaged) or 23 (containing a synthetic abasic site) were synthesized by Lofstrand Laboratories (Gaithersburg, Md.). Template primer 24 (containing a single cis-syn thymine dimer), was synthesized as described (34). Primer 25 was ^32P-labeled and annealed to one of the three templates 22, 23, 24 (at a primer template ratio of molar 1:1.5) and extended in 40 mM Tris.HCl at pH 8.0, 5 mM MgCl2, 100 μM of each dNTP, 10 mM DTT, 250 μg/ml BSA, 2.5% glycerol, 10 nM primer-template DNA and 0.1 Unit of polymerase at 60° C. for various times.
Primer extension assays were essentially as described in (Ghadessy et al., 2004). Briefly, undamaged oligonucleotides and a 51mer containing a synthetic abasic site were synthesized by Lofstrand Laboratories (Gaithersburg, Md.) using standard techniques and were gel purified prior to use. A 20mer primer (LES—20 P) with the sequence 5′-[…]-3′ (SEQ ID NO: 99) was 5′-labeled with [^32P]ATP (5000 Ci/mmole; 1 Ci=37 GBq) (Pharmacia) using T4 polynucleotide kinase (Invitrogen, Carlsbad Calif.). Radiolabeled primer-template DNAs were prepared by annealing the 5′[^32P] labeled 20mer primer to one of the two following 51mer templates (at a primer template ratio of molar 1:1.5). 1) undamaged DNA (UNDT51T); 5′-AGCTACCATGCCTGCACGAATTCGGCATCCGTCGCGACCACGGTCGCAGCG-3′ (SEQ ID NO: 100); 2) an oligo (LABA51T) containing a synthetic abasic site (indicated as an X in bold font); 5′-AGCTACCATGCCTGCACGACA XCG GCATCCGTCGCGACCACGGTCGCAGCG-3′ (SEQ ID NO: 101). Standard replication reactions of 10 contained 40 mM Tris.HCl at pH 8.0, 5 mM MgCl2, 100 μM of each ultrapure dNTP (Amersham Pharmacia Biotech, NJ), 10 mM DTT, 250 μg/ml BSA, 2.5% glycerol, 10 nM 5′[32P] primer-template DNA and 0.1 Unit of polymerase. After incubation at 60° C. for various times reactions were terminated by the addition of 10 μl of 95% formamide/10 mM EDTA and the samples heated to 100° C. for 5 min. Reaction mixtures (5 μl) were subjected to 20% polyacrylamide/7 M Urea gel electrophoresis and replication products visualized by PhosphorImager analysis.

[2] = PCR with all four dNTPs replaced by αS dNTPs; conditions: 50 cycle PCR, 50 μM αS dNTPs
Protocol: (§1) A PCR assay was used to screen and rank clones. Briefly, clones were normalized for activity in PCR with matched primers 3, 4 and activity with mismatched primers 1 and 2 (1 μM each) determined at minimal cycle number (15-25 cycles). Extension capability for different mismatches was determined by the same assay using mismatch primers 2 (C•C mismatch), 5 (A•A mismatch), 6 (G•G mismatch), 7 (G•A mismatch) with matched primer 3 or primer 1 (A•G mismatch) with matched primer 4. Incorporation of unnatural substrates in 50 cycle PCR was carried out using standard conditions and 50 μM […] dNTPs (Promega) or 50 μM FITC-12-dATP (Perkin-Elmer), Rhodamine-5-dUTP (Perkin-Elmer) or Biotin-16-dUTP (Roche) with equivalent amounts of the other 3 dNTPs (all 50 μM). Long PCR was carried out using a two-step cycling protocol as described (22) 94° C. for 2 minutes, followed by 20 cycles of (94° C. 15 sec, 68° C. 30 min) using 5 ng of phage λ DNA (New England Biolabs) template and either primers 9, 10, 11 with primer 12 or primer 13 with primers 10, 14.

[3] = tested on: primers with 3′ transversion mismatches; assay: Mismatch extension PCR assay; conditions: G•A, C•C, G•G mismatched primers
Protocol: as §1

[4] = tested on: primer-template duplex with matched or mismatched 3′ terminus; assay: Steady-state extension kinetics, gel-based assay; conditions: incorporated base is dCTP
Protocol: (§2) Kinetic parameters were determined using a gel-based assay essentially as described (16). Primers 15, 16, 17 (3′ base=G, C, A respectively) were ^32P-labeled and annealed to one of template strands 18, 19, 20 (template base=C, G, A respectively) or 21 (template base C different context). Duplex substrates were used at 50 nM final concentration in 1× Taq buffer with various concentrations of enzyme and dNTP. Reactions were carried out at 60° C. for times whereby <20% of primer-template was utilized at the highest concentration of dNTP.
(§3) Extension and incorporation kinetics of M1 and M4 for a selection of mismatches were measured using a gel-based steady-state kinetic assay (Goodman) (Tables 1 & 2). M1 and M4 respectively extend a C•C mispair 390 and 75-fold more efficiently than wtTaq. […] The gain in extension efficiency derives predominantly from increased relative Vmax values for the mutant polymerases, while Km for nucleotide substrates remains largely unchanged. For most DNA polymerases the relative efficiency of extending a given mispair (f0ext) is similar to the relative efficiency of forming it (finc) (Goodman 1993, Goodman 1990, Washington 2001). Indeed, M1 and M4 respectively incorporate dCTP opposite template base C 206- and 29-fold more efficiently than wtTaq (Table 2).

[5] = tested on: primer-template duplex, correct or incorrect incoming dNTP; assay: Steady-state single nucleotide incorporation kinetics, gel-based assay
Protocol: as §2, §3

[6] = 3′-terminal base pair C · G (template base: 3′ primer base), matched

## wtTaq: Thermus aquaticus (Taq) wild type DNA polymerase [reference compound]
[1]
  CPD bypass in primer extension: only able to insert a base opposite the 3′T of the dimer after prolonged reaction conditions
[2]
  PCR amplification with all four αS dNTPs: failed to generate any amplification products
[3]
  extension of 3′ transversion mismatches in PCR: unable to extend
[4]; 3′-terminal base pair A · A (template base: 3′ primer base)
  Vmax: 1.7 % Min^−1
[4]; 3′-terminal base pair A · A
  Km: 27.3 µM
  Ratio of fext, fext (mutant polymerase)/fext (wtTaq): 1.0
  fext, f (mismatched 3′terminus)/f (matched terminus): 6.7 × 10^−7
[4]; 3′-terminal base pair A · G (template base: 3′ primer base)
  Vmax: 28.0 % Min^−1
[4]; 3′-terminal base pair A · G
  Km: 45.2 µM
  Ratio of fext, fext (mutant polymerase)/fext (wtTaq): 1.0
  fext, f (mismatched 3′terminus)/f (matched terminus): 2.1 × 10^−7
[4]; 3′-terminal base pair C · C (template base: 3′ primer base)
  Vmax: 0.2 % Min^−1
[4]; 3′-terminal base pair C · C
  Km: 39.9 µM
  Ratio of fext, fext (mutant polymerase)/fext (wtTaq): 1.0
  fext, f (mismatched 3′terminus)/f (matched terminus): 5.9 × 10^−8
[4]; [6]
  Km: 0.016 µM
  Vmax: 1477.0 % Min^−1
[4]; 3′-terminal base pair G · A (template base: 3′ primer base)
  Vmax: 1.6 % Min^−1
[4]; 3′-terminal base pair G · A
  Km: 32.8 µM
  Ratio of fext, fext (mutant polymerase)/fext (wtTaq): 1.0
  fext, f (mismatched 3′terminus)/f (matched terminus): 5.4 × 10^−7
[4]; 3′-terminal base pair G · G (template base: 3′ primer base)
  Vmax: 20.4 % Min^−1
[4]; 3′-terminal base pair G · G
  Km: 174 µM
  Ratio of fext, fext (mutant polymerase)/fext (wtTaq): 1.0
  fext, f (mismatched 3′terminus)/f (matched terminus): 1.3 × 10^−6
[5]; base pair C: dCTP
  Km: 1330 µM
  Ratio of finc, finc (mutant polymerase)/finc (wtTaq): 1
  finc, f (incorrect dNTP)/f (correct dNTP): 3.86 × 10^−8
[5]; base pair C: dCTP (template base: incoming nucleotide)
  Vmax: 3.3 % Min^−1
[5]; base pair C: dGTP (template base: incoming nucleotide), correct dNTP
  Vmax: 2356.02 % Min^−1
[5]; base pair C: dGTP, correct dNTP
  Km: 0.0366 µM
[5]; base pair G: dATP
  Km: 259 µM
  Ratio of finc, finc (mutant polymerase)/finc (wtTaq): 1
  finc, f (incorrect dNTP)/f (correct dNTP): 8.27 × 10^−5
[5]; base pair G: dATP (template base: incoming nucleotide)
  Vmax: 1973.68 % Min^−1
[5]; base pair G: dCTP (template base: incoming nucleotide), correct dNTP
  Vmax: 1477 % Min^−1
[5]; base pair G: dCTP, correct dNTP
  Km: 0.016 µM
[5]; base pair G: dGTP
  Km: 365 µM
  Ratio of finc, finc (mutant polymerase)/finc (wtTaq): 1
  finc, f (incorrect dNTP)/f (correct dNTP): 1.7 × 10^−6
[5]; base pair G: dGTP (template base: incoming nucleotide)
  Vmax: 57.47 % Min^−1
[5]; base pair G: dTTP
  Km: 1.64 µM
  Ratio of finc, finc (mutant polymerase)/finc (wtTaq): 1
  finc, f (incorrect dNTP)/f (correct dNTP): 1.65 × 10^−4
[5]; base pair G: dTTP (template base: incoming nucleotide)
  Vmax: 25.08 % Min^−1

B1: 3A10: third round clone, abasic site bypass; SEQ ID NO: 86 (protein)
chain: MAMLPLFEPKGRVLLVDGHHLAYRTFFALKGLTTSRGEPVQVVYGFAKSLLKALKEDGYKAVFVVFDAKAPSFRHKAYEAYRAGRAPTPQDFPRQLALIKELVDLLGFTRLEVPGYEADDVLATLAKKAEKEGYEVRILTADRGLYQLVSDRVAVLHPEGHLITPEWLWEKYGLRPEQWVDFRALVGDPSDNLPGVKGIGEKTALKLLKEWGSLENLLKNLDRVKPENVREKIKAHLEDLRLSLELSRVRTDLPLEVDLAQGREPDREGLRAFLERLEFGSLLHEFGLLESPKALEEAPWPPPEGAFVGFVLSRKEPMWADLLALAAARGGRVHQAPEPYKALRDLKEARGLLAKDLSVLALREGLGLPPGDDPMLLAYLLDPSNTTPEGVARRYGGEWTEEAGERAALSERLFANLWGRLEGEERLLWLYREVERPLSAVLAHMETTGVRLDVAYLRALSLEVAEEIARLEAEVFRLAGRPFNLNSRDQLERVLFDELGLPAIGKTEKTGKRSTSAAVLEALREAHPIVEKILQYRELTKLKSTYIDPLPDLIHPRTGRLHTRFNQTATATGRLSSSDPNLQNIPVRTPLGQRIRRAFIAEEGWLLVVLDYSQMELRVLAHLSGDENLIRVFQEGKDIHTQTASWMFGVPPEAVDPLMRRAAKTVNFGVLYGMSAHRLSQELSIPYEEAVAFIERYFQSFPKVRAWIEKTLEEGRRRGYVETLFGRRRYVPDLNARMKSVRGAAERMAFNMPVQGTAADLMKLAMVKLFPRLREMGARMLLQVHDELLLEAPQARAEEVAALAKEAMEKAYPLAVPLEVEVGIGEDWLSAKE
modifications: Mutant Taq polymerase
[1]; listed as A10
  CPD bypass in primer extension: clearly better at both abasic site and CPD extension and bypass than both wild type and M1; also recorded: superior elongation and bypass when compared to wild type
